Data from patent US20100291103A1 (DOMANTIS, published 2010).
Values belong to the binder of their own block, whether it stands above or below them.

Legend:
[1] = molecular target: T1, TNFR1-FC fusion (human TNFR1 receptor binding assay) (human, UniProt P19438 22-211, limits assumed); assay: RBA assay; taken as the value of the Fc fusion
T1 construct: also called TNFR1 (RBA); not shown: Fc part, captured by goat anti-human IgG (H&L); not described further
T1 sequence (looked up): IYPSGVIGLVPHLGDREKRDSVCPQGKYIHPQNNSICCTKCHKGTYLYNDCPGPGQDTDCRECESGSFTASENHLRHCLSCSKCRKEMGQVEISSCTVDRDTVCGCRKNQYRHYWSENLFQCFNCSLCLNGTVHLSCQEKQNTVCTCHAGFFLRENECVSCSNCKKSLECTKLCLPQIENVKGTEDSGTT

TNFR1 on MRC-5 cells = molecular target: T2, TNFR1 on MRC-5 cells (UniProt P19438 30-455, limits assumed); assay: cell-based or functional assay
T2 sequence (looked up): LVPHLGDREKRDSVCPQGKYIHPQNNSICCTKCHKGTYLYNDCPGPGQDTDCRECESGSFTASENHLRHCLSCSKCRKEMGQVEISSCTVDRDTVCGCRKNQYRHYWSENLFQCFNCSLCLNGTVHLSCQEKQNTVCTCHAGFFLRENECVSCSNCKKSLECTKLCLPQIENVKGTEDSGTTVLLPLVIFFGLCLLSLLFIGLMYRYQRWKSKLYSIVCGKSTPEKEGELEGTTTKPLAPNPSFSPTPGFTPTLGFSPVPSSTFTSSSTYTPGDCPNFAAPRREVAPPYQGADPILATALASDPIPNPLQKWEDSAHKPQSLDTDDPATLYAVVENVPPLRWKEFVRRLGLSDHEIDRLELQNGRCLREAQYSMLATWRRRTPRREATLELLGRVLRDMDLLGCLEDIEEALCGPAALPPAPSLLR

Activity (nM), RBA [1]: 0.047 nM
B1: DMS1544 (DOM1h-131-206 Fc fusion) (Fc fusion, not shown: a dimerising Fc or GST)
chain: EVQLLESGGGLVQPGGSLRLSCAASGFTFAHETMVWVRQAPGKGLEWVSHIPPDGQDPFYADSVKGRFTISRDNSKNTLYLQMNSLRAEDTAVYHCALLPKRGPWFDYWGQGTLVTVSSASTHTCPPCPAPELLGGP
notes: Dimeric Fc fusion

ND50, MRC-5 cell-based assay (TNFα stimulated IL-8 release) (TNFR1 on MRC-5 cells): 0.71 nM
B2: DOM1h-131-206 (other)
VH: EVQLLESGGGLVQPGGSLRLSCAASGFTFAHETMVWVRQAPGKGLEWVSHIPPDGQDPFYADSVKGRFTISRDNSKNTLYLQMNSLRAEDTAVYHCALLPKRGPWFDYWGQGTLVTVSS
